To fix the notation:
T1: B-cat-Halo (NanoBRET construct expressed in HEK293 cells) (UniProt P35222 1-781, HaloTag NanoBRET 618 Ligand bound in the assay)
T1 sequence (looked up): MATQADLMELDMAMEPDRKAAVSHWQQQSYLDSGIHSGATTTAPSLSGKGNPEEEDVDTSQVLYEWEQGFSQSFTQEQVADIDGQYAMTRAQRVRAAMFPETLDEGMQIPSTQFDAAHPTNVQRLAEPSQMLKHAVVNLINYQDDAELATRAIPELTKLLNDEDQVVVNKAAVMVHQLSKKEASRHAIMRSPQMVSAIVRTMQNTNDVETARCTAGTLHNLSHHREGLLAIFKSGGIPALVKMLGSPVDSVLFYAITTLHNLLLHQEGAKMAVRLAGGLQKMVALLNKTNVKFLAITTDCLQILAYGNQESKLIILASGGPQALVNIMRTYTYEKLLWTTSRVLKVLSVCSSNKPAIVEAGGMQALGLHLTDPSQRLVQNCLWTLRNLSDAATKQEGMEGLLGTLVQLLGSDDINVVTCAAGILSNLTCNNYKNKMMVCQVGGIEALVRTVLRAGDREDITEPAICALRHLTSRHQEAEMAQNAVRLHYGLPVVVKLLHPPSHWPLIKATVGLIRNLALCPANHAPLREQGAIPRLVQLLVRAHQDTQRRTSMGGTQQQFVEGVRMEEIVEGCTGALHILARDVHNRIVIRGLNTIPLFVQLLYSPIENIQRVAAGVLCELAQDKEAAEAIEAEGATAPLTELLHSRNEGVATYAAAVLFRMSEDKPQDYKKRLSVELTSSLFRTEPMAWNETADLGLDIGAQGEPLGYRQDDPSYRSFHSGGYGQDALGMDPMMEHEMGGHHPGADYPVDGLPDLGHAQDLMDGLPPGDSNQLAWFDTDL

T2: full-length beta-Catenin (Uniprot ID P35222) (Homo sapiens (Human), UniProt P35222 1-781)
T2 construct: also called bCat; B-Catenin
T2 sequence: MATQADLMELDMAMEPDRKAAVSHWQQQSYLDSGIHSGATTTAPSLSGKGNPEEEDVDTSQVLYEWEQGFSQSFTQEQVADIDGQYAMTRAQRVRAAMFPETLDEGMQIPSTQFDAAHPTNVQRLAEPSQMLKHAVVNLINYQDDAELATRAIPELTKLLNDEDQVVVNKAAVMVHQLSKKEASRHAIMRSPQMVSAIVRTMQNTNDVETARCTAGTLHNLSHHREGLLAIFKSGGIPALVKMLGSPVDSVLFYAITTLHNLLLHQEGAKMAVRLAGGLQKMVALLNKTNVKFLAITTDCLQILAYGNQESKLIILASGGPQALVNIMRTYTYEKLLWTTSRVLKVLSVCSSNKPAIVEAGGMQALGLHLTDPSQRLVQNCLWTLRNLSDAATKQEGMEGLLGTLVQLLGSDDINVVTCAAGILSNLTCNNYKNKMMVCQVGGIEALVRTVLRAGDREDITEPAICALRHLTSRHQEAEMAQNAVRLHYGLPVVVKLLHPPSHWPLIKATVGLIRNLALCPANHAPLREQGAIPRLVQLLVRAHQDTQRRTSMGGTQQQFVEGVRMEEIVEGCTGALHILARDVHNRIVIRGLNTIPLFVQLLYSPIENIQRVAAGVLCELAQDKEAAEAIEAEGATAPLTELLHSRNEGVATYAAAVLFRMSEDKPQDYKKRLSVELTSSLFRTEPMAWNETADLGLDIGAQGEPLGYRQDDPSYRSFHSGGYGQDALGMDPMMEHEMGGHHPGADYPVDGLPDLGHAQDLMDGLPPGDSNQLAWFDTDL

T3: full-length beta-Catenin (Uniprot ID P35222) (Homo sapiens (Human), UniProt P35222 1-781)
T3 construct: also called bCat; B-Catenin
T3 sequence: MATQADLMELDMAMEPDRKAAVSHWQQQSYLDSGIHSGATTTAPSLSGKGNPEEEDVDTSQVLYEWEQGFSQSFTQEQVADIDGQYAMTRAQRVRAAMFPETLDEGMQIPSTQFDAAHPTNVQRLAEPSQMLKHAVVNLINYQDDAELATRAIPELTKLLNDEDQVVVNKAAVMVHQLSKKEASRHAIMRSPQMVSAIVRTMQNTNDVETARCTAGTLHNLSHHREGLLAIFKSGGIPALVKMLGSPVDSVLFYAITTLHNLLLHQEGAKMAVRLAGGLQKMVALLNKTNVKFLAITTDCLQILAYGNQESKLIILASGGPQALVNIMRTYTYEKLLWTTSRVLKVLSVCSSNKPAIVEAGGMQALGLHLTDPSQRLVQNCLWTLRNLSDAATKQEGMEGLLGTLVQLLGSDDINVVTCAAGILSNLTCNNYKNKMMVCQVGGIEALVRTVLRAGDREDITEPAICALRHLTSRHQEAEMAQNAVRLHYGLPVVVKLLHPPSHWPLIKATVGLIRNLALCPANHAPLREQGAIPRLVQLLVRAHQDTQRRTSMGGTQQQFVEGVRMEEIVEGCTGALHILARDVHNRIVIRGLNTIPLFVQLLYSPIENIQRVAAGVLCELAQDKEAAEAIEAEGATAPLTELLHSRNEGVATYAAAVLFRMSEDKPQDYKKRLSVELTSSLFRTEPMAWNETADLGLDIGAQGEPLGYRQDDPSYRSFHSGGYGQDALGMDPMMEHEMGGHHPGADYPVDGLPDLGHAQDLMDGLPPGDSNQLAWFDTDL

B1: I-751 (peptide)
peptide: Ac-[αAllylPro]DL[B5(4)]DEAAFN[S8]F[Bta]S-NH2
modifications: staple 1-4, 4-11; also: olefin E/Z not assigned, later-eluting staple isomer
notes: Stapled peptide; shares its description with I-750, later eluting HPLC peak (staple isomer composition); also called Ac-PL3-Asp-Leu-B5-Asp-Glu-Ala-Ala-Phe-Asn-S8-Phe-BztA-Ser-NH2
B2: I-753 (peptide)
peptide: Ac-[αAllylPro]DL[B5(4)]DEAAFN[S8]F[Bta]N-NH2
modifications: staple 1-4, 4-11; also: olefin E/Z not assigned, later-eluting staple isomer
notes: Stapled peptide; also called Ac-PL3-Asp-Leu-B5-Asp-Glu-Ala-Ala-Phe-Asn-S8-Phe-BztA-Asn-NH2
B3: I-752 (peptide)
peptide: Ac-[αAllylPro]DL[B5(4)]DEAAFN[S8]F[Bta]N-NH2
modifications: staple 1-4, 4-11; also: olefin E/Z not assigned, earlier-eluting staple isomer
notes: as for B2
B4: I-464 (peptide)
peptide: Ac-[αAllylPro]DA[B5(21)]DEAAFN[PyrS3″]F[Bta]Q-NH2
modifications: staple 1-4, 4-11; not fully specified; printed as Ac-PL3-Asp-Ala-B5-Asp-Glu-Ala-Ala-Phe-Asn-PyrS3-Phe-BztA-Gln-NH2
notes: Stapled peptide; later-eluting HPLC peak (staple isomer composition)
B5: I-455 (peptide)
peptide: Ac-[αAllylPro]DA[B5(21)]DEAA[Phe(4-F)]N[S8]F[Bta]Q-NH2
modifications: staple 1-4, 4-11
notes: Stapled peptide composition
B6: I-453 (peptide)
peptide: Ac-[αAllylPro]DA[B5(21)]DEAA[Phe(2-F)]N[S8]F[Bta]Q-NH2
modifications: staple 1-4, 4-11
notes: Stapled peptide composition
B7: I-450 (peptide)
peptide: Ac-[αAllylPro]DA[B5(21)]DEAA[2Thi]Q[S8][Phe(3-F)]WQ-NH2
modifications: staple 1-4, 4-11
notes: Stapled peptide composition
B8: I-441 (peptide)
peptide: Ac-[αAllylPro]DA[B5(21)]DEAAFN[S8][Phe(2-NO2)][Bta]Q-NH2
modifications: staple 1-4, 4-11
notes: Stapled peptide composition
B9: I-469 (peptide)
peptide: Ac-[αAllylPro]DI[B5(6)]DDAAFN[S8]F[Bta]H-NH2
modifications: staple 1-4, 4-11; also: staple isomer composition: earlier-eluting HPLC peak
notes: Stapled peptide; earlier-eluting HPLC peak (staple isomer composition)
B10: I-467 (peptide)
peptide: Ac-[αAllylPro]DI[B5(6)]DDAAFN[S8]F[Bta]Q-NH2
modifications: staple 1-4, 4-11; also: staple isomer composition: earlier-eluting HPLC peak
notes: as for B9
B11: I-468 (peptide)
peptide: Ac-[αAllylPro]DI[B5(6)]DDAAFN[S8]F[Bta]Q-NH2
modifications: staple 1-4, 4-11; also: staple isomer composition: later-eluting HPLC peak
notes: as for B4
B12: I-454 (peptide)
peptide: Ac-[αAllylPro]DA[B5(21)]DEAA[Phe(3-F)]N[S8]F[Bta]Q-NH2
modifications: staple 1-4, 4-11
notes: Stapled peptide composition

Experimental findings from patent US20240116985A1 (published 2024) are described below.

Starred links: 1 amine or outer side, 2 acyl side, 3 side chain; linkers in the order of their positions; H or OH if unused. Positions of bridges follow the written chain, without caps; N, C: chain ends. Non-standard residues stand in square brackets, D forms with d. Primed or numbered codes have the meaning given here. PyrS3″ = (S)-3-amino-1-((hex-5-en-1-yloxy)carbonyl)pyrrolidine-3-carboxylic acid (stapling residue), C=CCCCCOC(=O)N1CC[C@@](N[*:1])(C(=O)[*:2])C1; B5(4) = 2,2-bis(4-pentenyl)glycine = 2-amino-2-(pent-4-en-1-yl)hept-6-enoic acid (stitching residue), C=CCCCC(CCCC=C)(N[*:1])C(=O)[*:2]; B5(21) = 2-amino-2-(pent-4-en-1-yl)hept-6-enoic acid, bis(4-pentenyl)glycine (stitching residue), C=CCCCC(CCCC=C)(N[*:1])C(=O)[*:2]; B5(6) = 2-amino-2-(pent-4-en-1-yl)hept-6-enoic acid (bis(4-pentenyl)glycine), stitching residue, C=CCCCC(CCCC=C)(N[*:1])C(=O)[*:2]; Phe(2-NO2) = N[C@@H](Cc1ccccc1[N+](=O)[O-])C(=O)O; Phe(3-F) = N[C@@H](Cc1cccc(F)c1)C(=O)O; Phe(4-F) = N[C@@H](Cc1ccc(F)cc1)C(=O)O; Phe(2-F) = N[C@@H](Cc1ccccc1F)C(=O)O; Bta = N[C@@H](Cc1csc2ccccc12)C(=O)O; αAllylPro = C=CC[C@@]1(C(=O)O)CCCN1; 2Thi = N[C@@H](Cc1cccs1)C(=O)O; S8 = C=CCCCCCC[C@](C)(N)C(=O)O

The target in the first assay is T1, B-cat-Halo (NanoBRET construct …). Kind of assay: cell-based or functional assay.
In the case of B1, the “NanoBRET Abs IC50” value worked out at 7100 nM.

For the molecule B2, the “NanoBRET Abs IC50” value worked out at 10000 nM. With B3, the “NanoBRET Abs IC50” value was 9900 nM.

The next assay has as its target T2, full-length beta-Catenin (Uniprot ID …). Kind of assay: fluorescence polarization competition; full-length beta-catenin, competitor 5FAM-TCF4(10-53) probe. An outline of the steps:
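Plate incubated 60 minutes at 20° C. protected from light before reading. Concentrations given are final.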
On the technique in general: Polarisation of emitted light reports the rotation of a fluorescent probe.
One may read the IC50 as the concentration needed to halve the response being measured. The low end stands for greater potency in that assay, the high end for weaker potency in that assay. B4 yielded an IC50 of 57 nM. The same measure, in the same setting: next, B5: 83.5 nM. Still for that read-out and setting: next, B6: 1550 nM; B7: 3720 nM.

B8: the IC50 was determined as 133 nM. Turning to B9, the 50% inhibitory concentration (IC50) amounted to 27 nM. In turn, B10 showed an IC50 of 44 nM. In turn, B11 gave an IC50 of 27 nM. On the same count and under the same terms, next, B12: 125 nM.

The target in another assay is T3, full-length beta-Catenin (Uniprot ID …). Kind of assay: fluorescence polarization competition; full-length beta-catenin with 5FAM-TCF4(10-53) probe as competitor. Here is the method: The plate was incubated protected from light for 60 minutes at 20° C. prior to read. Reads were performed on a CLARIOstar plate reader (BMG Labtech) in duplicate, and data were fitted to a 1:1 binding model with hill slope using an in-house script. All provided concentrations are final concentrations.
As to B1, the half-inhibitory concentration (IC50) worked out at 29 nM.

As for B2, the 50% inhibitory concentration (IC50) came out at 14 nM.

For the molecule B3, the IC50 was 16 nM.
